Laboratory results taken from patent publication US20080207501A1 (published 2008).
Ends that are not written are not given here.

Biological target: T1, amylin receptor (nucleus accumbens membranes prepared from rat brain) (rat, UniProt P32214 25-516)
T1 chain 1: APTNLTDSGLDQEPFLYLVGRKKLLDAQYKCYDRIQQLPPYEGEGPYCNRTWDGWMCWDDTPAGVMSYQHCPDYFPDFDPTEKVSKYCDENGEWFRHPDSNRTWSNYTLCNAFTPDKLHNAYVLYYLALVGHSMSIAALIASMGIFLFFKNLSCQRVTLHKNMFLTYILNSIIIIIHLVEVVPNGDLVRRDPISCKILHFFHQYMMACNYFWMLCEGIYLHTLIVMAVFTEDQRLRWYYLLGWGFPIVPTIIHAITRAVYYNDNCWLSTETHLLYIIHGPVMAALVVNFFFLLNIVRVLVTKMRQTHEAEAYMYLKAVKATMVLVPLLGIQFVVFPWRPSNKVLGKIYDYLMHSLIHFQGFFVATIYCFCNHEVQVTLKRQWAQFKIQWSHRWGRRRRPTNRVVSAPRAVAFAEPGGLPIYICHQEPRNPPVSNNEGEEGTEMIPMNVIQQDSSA
T1 chain 2: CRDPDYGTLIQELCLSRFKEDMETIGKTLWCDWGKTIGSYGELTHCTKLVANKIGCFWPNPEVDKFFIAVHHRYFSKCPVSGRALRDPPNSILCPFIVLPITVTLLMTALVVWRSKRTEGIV
Assay: radioligand binding assay (displacement of radiolabeled amylin)

Work on TQAQLLRVGCVLGTCQVQNLSHRLWQLMGPAGRQDSAPVDPSSPHSY-NH2 (ends and bridges not checked) [Human AFP-6 [1-47]] yielded an EC50 of 2.9 nM.

In the case of CGNLSTCMLGTYTQDFNKFHTFPQTAIGVGAP-NH2 (ends and bridges not checked) [Human Calcitonin], the EC50 is reported as > 100 nM.
